Experimental data published in the Human Domainome abundance scans (Beltran et al. 2025).
± gives the uncertainty stated by the source.

B1: SWI/SNF complex subunit SMARCC2, residues 599 to 641; numbered along this chain, Q8TAQ2 (parent)
chain: REWTEQETLLLLEALEMYKDDWNKVSEHVGSRTQDECILHFLR

Variants of: B1
Experiment: abundance fitness (aPCA) (normalised: wild type 0, dead -1); higher = more abundant; growth selection in yeast, the domain comes from the species named
Conditions: Homo sapiens

Abundance fitness of substitutions, site by site:
E13: T -0.181 ± 0.079, S -0.304 ± 0.071, F -0.887 ± 0.27, W -0.697 ± 0.19, N -0.415 ± 0.15
E7: L -0.833 ± 0.19, A -0.448 ± 0.19, F -1.44 ± 0.41, P -0.804 ± 0.11, Y -1.26 ± 0.23
D35: M 0.008 ± 0.21, R 0.027 ± 0.066, I -0.388 ± 0.17, Q 0.378 ± 0.1, T -0.213 ± 0.12, H 0.108 ± 0.1, E -0.035 ± 0.15, F -0.284 ± 0.16, G 0.046 ± 0.1
H28: I -0.265 ± 0.1, Y -0.225 ± 0.13, N -0.853 ± 0.27, S -0.747 ± 0.13, V -0.322 ± 0.097, T -0.256 ± 0.22, R -0.294 ± 0.082, M -0.341 ± 0.15
V29: W -0.931 ± 0.21, F -0.668 ± 0.33, C -0.635 ± 0.2, R -1.09 ± 0.17
E5: D -0.692 ± 0.32, T 0.004 ± 0.092, Y 0.116 ± 0.12, H -0.153 ± 0.084, L -0.442 ± 0.086, W -0.201 ± 0.2, A -0.227 ± 0.11
L39: S 0.071 ± 0.093, D 0.642 ± 0.34, Q 0.08 ± 0.28, T 0.235 ± 0.067, R 0.122 ± 0.066, E 0.335 ± 0.073
T33: E -0.263 ± 0.23, D 0.079 ± 0.23, H -0.214 ± 0.13, Y -0.305 ± 0.17, P -0.17 ± 0.12, K 0.042 ± 0.2, F -0.684 ± 0.37, N 0.125 ± 0.09, C -0.064 ± 0.13, A 0.045 ± 0.17
E36: A -0.446 ± 0.12, P -0.783 ± 0.29, R -0.873 ± 0.15, H -0.196 ± 0.19, G -0.844 ± 0.23, V -1.15 ± 0.2
F41: N 0.581 ± 0.11, M 0.059 ± 0.091, H 0.442 ± 0.077, C -0.425 ± 0.2, L -0.487 ± 0.072, V -0.452 ± 0.083, I -0.299 ± 0.11
Y18: P -0.637 ± 0.091, F -0.417 ± 0.17, S -0.286 ± 0.071, A -0.375 ± 0.1, N -0.003 ± 0.12
E27: T -0.146 ± 0.14, H -0.407 ± 0.18, L -0.473 ± 0.095, W -0.495 ± 0.12, D -0.209 ± 0.14, R -0.022 ± 0.066, S -0.21 ± 0.12, C -0.379 ± 0.092
I38: C 0.203 ± 0.13, L 0.12 ± 0.068, K 0.347 ± 0.079, N 0.274 ± 0.12, F 0.023 ± 0.097, V -0.019 ± 0.11, E 0.351 ± 0.19, H 0.415 ± 0.061
L15: N -0.017 ± 0.13, Y 0.278 ± 0.081, T 0.301 ± 0.095, W 0.04 ± 0.073, V 0.336 ± 0.064, R 0.454 ± 0.06, K 0.586 ± 0.096
Q6: S -0.015 ± 0.076, V -0.117 ± 0.095, I -0.04 ± 0.37, K -0.167 ± 0.12, P 0.026 ± 0.069, W -0.025 ± 0.1, D -0.133 ± 0.09, H -0.282 ± 0.15, C -0.394 ± 0.15
S31: N 0.057 ± 0.099, T 0.287 ± 0.078, L -0.49 ± 0.18, A -0.019 ± 0.1, Q 0.149 ± 0.24, R -0.219 ± 0.11, G 0.054 ± 0.086, M 0.042 ± 0.1, D 0.06 ± 0.091, V -0.218 ± 0.071, H -0.085 ± 0.14
N23: R 0.069 ± 0.056, S 0.064 ± 0.065, M 0.025 ± 0.13, D 0.109 ± 0.11, A 0.204 ± 0.064, Q -0.081 ± 0.097, W -0.131 ± 0.12, L 0.026 ± 0.067, T 0.033 ± 0.069
R32: N -0.909 ± 0.24, M -0.202 ± 0.15, G -0.727 ± 0.11, K 0.207 ± 0.1, Q -0.313 ± 0.15, W -0.583 ± 0.15, S -1.07 ± 0.17, T -0.49 ± 0.097
S26: N -0.62 ± 0.12, A 0.303 ± 0.087, V 0.071 ± 0.064, M 0.199 ± 0.14, T 0.115 ± 0.08, Y -0.252 ± 0.12, E 0.081 ± 0.12, R 0.219 ± 0.066
L10: F -0.27 ± 0.13, N -0.195 ± 0.099, Q -0.018 ± 0.14, I -0.35 ± 0.097, Y -0.024 ± 0.1, C -0.057 ± 0.15, R -0.208 ± 0.079, P -0.422 ± 0.23, V 0.029 ± 0.081, K 0.028 ± 0.11
V25: Q -0.853 ± 0.24, S -0.528 ± 0.11, N -0.275 ± 0.17, M 0.026 ± 0.07
K19: I -0.303 ± 0.1, E 0.019 ± 0.091, G -0.235 ± 0.06, M -0.332 ± 0.38, Y -0.427 ± 0.15, N 0.29 ± 0.14, A -0.26 ± 0.074
D21: W -0.493 ± 0.27, M -0.747 ± 0.3, V -0.496 ± 0.09, A -0.172 ± 0.095, P -0.919 ± 0.16, H -0.408 ± 0.084, G -0.315 ± 0.1, N -0.314 ± 0.43, Y -0.541 ± 0.33, E -0.158 ± 0.071
Q34: T 0.185 ± 0.077, I -0.074 ± 0.078, N 0.051 ± 0.093, W -0.577 ± 0.17, F -0.029 ± 0.074, Y 0.03 ± 0.085, V -0.018 ± 0.07, L -0.073 ± 0.073, D -0.048 ± 0.13, C 0.104 ± 0.088, H 0.058 ± 0.1
H40: S -0.383 ± 0.099, Y 0.272 ± 0.08, V -0.376 ± 0.17, Q -0.052 ± 0.17, N -0.343 ± 0.16, G -0.178 ± 0.11, R 0.096 ± 0.075, I -0.431 ± 0.1
E16: P -0.018 ± 0.091, F -0.372 ± 0.15, G -0.152 ± 0.075, L -0.698 ± 0.11, R 0.062 ± 0.06, T -0.091 ± 0.084
D20: R 0.289 ± 0.061, Q 0.244 ± 0.062, S 0.027 ± 0.088, A -0.181 ± 0.071, I -0.777 ± 0.4, L -0.448 ± 0.075, C -0.15 ± 0.078
L42: R 0.589 ± 0.057, T 0.519 ± 0.087, G 0.447 ± 0.065, A 0.334 ± 0.078
K24: D -0.366 ± 0.12, S -0.081 ± 0.063, F 0.058 ± 0.13, L 0.054 ± 0.065, H -0.139 ± 0.12
A14: W -1.39 ± 0.24, Q -0.797 ± 0.27, E -0.776 ± 0.3, L -0.778 ± 0.084, V -1.08 ± 0.17, M -0.991 ± 0.17, S -0.181 ± 0.067, C -0.804 ± 0.16, F -1.05 ± 0.21, K -0.844 ± 0.14, G 0.062 ± 0.064
M17: K 0.077 ± 0.084, N 0.027 ± 0.12, V -0.017 ± 0.079, P -0.501 ± 0.16, C -0.283 ± 0.17, R 0.118 ± 0.061, D -0.035 ± 0.1, Q 0.013 ± 0.072, H -0.348 ± 0.19, A -0.224 ± 0.071, L 0.052 ± 0.074, W -0.118 ± 0.098
L11: D -0.801 ± 0.16, N -0.575 ± 0.09, T -0.412 ± 0.091, K -0.588 ± 0.25, W -0.619 ± 0.12, S -0.788 ± 0.14, C -0.17 ± 0.1
T8: W -0.205 ± 0.076, V 0.02 ± 0.082, N 0.287 ± 0.2, D -0.177 ± 0.33, E 0.099 ± 0.12, P -0.843 ± 0.15, I 0.046 ± 0.099, R 0.354 ± 0.054, L -0.001 ± 0.082, M 0.124 ± 0.22
W22: D -0.339 ± 0.18, Y -0.115 ± 0.32, H -0.231 ± 0.18, I -0.535 ± 0.45, N -0.759 ± 0.15, M -0.412 ± 0.11, K -0.367 ± 0.15, F -0.389 ± 0.12, Q -0.887 ± 0.24, R -0.833 ± 0.12
W3: I -0.275 ± 0.41, N -0.226 ± 0.13, C -0.518 ± 0.19, V -0.203 ± 0.23, L -0.168 ± 0.075, P -0.045 ± 0.26, K 0.681 ± 0.43, D 0.1 ± 0.12, H -0.058 ± 0.29, A -0.539 ± 0.25
L9: C 0.134 ± 0.093, T 0.243 ± 0.059, Q 0.271 ± 0.07, H 0.247 ± 0.066, F -0.16 ± 0.11, S 0.144 ± 0.055, W -0.118 ± 0.094, G 0.147 ± 0.074
E2: S 0.37 ± 0.076, C -0.52 ± 0.18, N 0.317 ± 0.092, Q 0.403 ± 0.14, D 0.56 ± 0.11, G 0.184 ± 0.095, Y 0.42 ± 0.16, K 0.344 ± 0.17
C37: L -0.844 ± 0.14, N -0.67 ± 0.16, G -0.833 ± 0.15, D -0.471 ± 0.22, A -0.332 ± 0.094, W -0.924 ± 0.15, F -0.361 ± 0.31, V -0.134 ± 0.087, H -0.353 ± 0.45, P -0.708 ± 0.092
G30: N -0.164 ± 0.1, I -0.147 ± 0.12, H -0.711 ± 0.12, T -0.031 ± 0.078, M -0.341 ± 0.12, R -0.211 ± 0.088, C -0.064 ± 0.12, Q -0.668 ± 0.13, E 0.092 ± 0.1
T4: S 0.056 ± 0.067, Y -0.307 ± 0.31, D -0.608 ± 0.19, N 0.18 ± 0.092, F -0.32 ± 0.45, G -0.794 ± 0.24, R -0.305 ± 0.11, A -0.309 ± 0.084, C -0.705 ± 0.17, M 0.142 ± 0.12, E -0.042 ± 0.13, L -0.247 ± 0.1
R1: I 0.382 ± 0.083, H -0.26 ± 0.23, P -0.025 ± 0.18, K 0.35 ± 0.12, Q 0.526 ± 0.23, T 0.287 ± 0.081, L 0.094 ± 0.083, Y 0.033 ± 0.095, M 0.298 ± 0.12, A 0.244 ± 0.084, G 0.142 ± 0.057, F 0.36 ± 0.11
L12: C -0.351 ± 0.33, S -0.169 ± 0.2, W -0.145 ± 0.1
